Measurements reported in patent CN116761824A (SHANGHAI YAOMING HELIAN BIOTECHNOLOGY CO LTD, dated 2023).

Target: T1, 人Trop2 (human, UniProt P09758 27-323)
T1 construct: whole, on cells; also called 肿瘤相关钙信号转导器2; TACSTD2
T1 sequence (looked up): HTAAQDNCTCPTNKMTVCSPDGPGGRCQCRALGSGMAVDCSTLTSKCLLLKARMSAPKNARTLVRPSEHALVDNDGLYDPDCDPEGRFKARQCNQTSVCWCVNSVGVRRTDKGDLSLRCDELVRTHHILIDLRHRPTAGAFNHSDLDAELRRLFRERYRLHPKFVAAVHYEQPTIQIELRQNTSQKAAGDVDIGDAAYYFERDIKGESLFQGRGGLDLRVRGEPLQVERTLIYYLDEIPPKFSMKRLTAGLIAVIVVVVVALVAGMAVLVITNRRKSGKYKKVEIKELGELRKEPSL
Assay: FACS on tumour cells (MDA-MB-468, HCC827, BxPC-3), Alexa647 goat anti-human IgG Fc detection

B1: 抗-Trop2抗体886-36 (antibody, V domains shown)
VH: QVQLQQSGSELKKPGASVKVSCKASGYTFTNYGMNWVKQAPGQGLKWMGWINTYTGEPTYTDDFKGRFAFSLDTSVSTAYLQISSLKADDTAVYFCARGGFGSSYWYFDVWGQGSLVTVSS
VL: DIQLTQSPSSLSASVGDRVSITCKASQDVSIAVAWYQQKPGKAPKLLIYSASYRYTGVPDRFSGSGSGTDFTLTISSLQPEDFAVYYCQQHYITPLTFGAGTKVEIKR
notes: also called WBP886-36
- binding result: binds

B2: 886-36-MMAE (antibody, V domains shown)
VH: QVQLQQSGSELKKPGASVKVSCKASGYTFTNYGMNWVKQAPGQGLKWMGWINTYTGEPTYTDDFKGRFAFSLDTSVSTAYLQISSLKADDTAVYFCARGGFGSSYWYFDVWGQGSLVTVSS
VL: DIQLTQSPSSLSASVGDRVSITCKASQDVSIAVAWYQQKPGKAPKLLIYSASYRYTGVPDRFSGSGSGTDFTLTISSLQPEDFAVYYCQQHYITPLTFGAGTKVEIKR
modifications: MC-vc-PAB-MMAE on cysteines freed by partial TCEP reduction of interchain disulfides; mostly in the Fab domain; mainly DAR4 (82.3%)
- binding result: binds
